# Results as given in PMC5722948, “A tyrosinase, mTyr-CNK, that is functionally available as a monophenol monooxygenase” (Scientific Reports, 2017).
# Assays:
# [1] = substrate: N[C@@H](Cc1ccc(O)cc1)C(=O)O; experiment: purified protein; format: biochemical, Candidatus Nitrosopumilus koreensis; conditions: monophenolase
# [2] = substrate: N[C@@H](Cc1ccc(O)c(O)c1)C(=O)O; experiment: purified protein; format: biochemical, Candidatus Nitrosopumilus koreensis; conditions: diphenolase
# [3] = 50 mM Tris pH 6.0, 0.01 mM CuSO4, 20 °C, substrate range 0.025–0.0625 mM
Protein,"Km ([1]; pH 6, 20 °C) [mM]","kcat ([1]; pH 6, 20 °C) [s⁻¹]","Km ([2]; pH 6, 20 °C) [mM]","kcat ([2]; pH 6, 20 °C) [s⁻¹]","Km [1, 3] [mM]","kcat [1, 3] [s⁻¹]","kcat/Km [1, 3] [M⁻¹ s⁻¹]","Km [2, 3] [mM]","kcat [2, 3] [s⁻¹]","kcat/Km [2, 3] [M⁻¹ s⁻¹]"
"cTyr-CNK (Candidatus Nitrosopumilus koreensis AR1) (protein, core tyrosinase domain, residues 1-293, C-terminal 294-415 removed; His6 tag (pET23b+), E. coli BL21(DE3), Ni-NTA purified) MTRKNAKDFLPDERQRYCNALLTLKQTIEPGHTLSKYDEFVAIHYGVTRRLRNGIPIGDGAHFVPGFLAWHREYLNRFEKAIRTVDSTLSLPYWNWSSGDDTDTTEIFTDDFMGPPGDPNNGNKITSGYFVENNWEVHSELDGGNNGSVLVRDSTLLSSSKLSQVSGYGELAMDAVNGDNDFDSFLPGLEGPHGSIHMWIGGHMTSMTSPNDPIFFLHHANIDRLWSKWQELHPGPENYNPNNDGSYGSRLNDRMWPWDGSEDTTTTRTGTATGISLQGLLPTFSDYDIVTPR",1.60 ± 0.65,2.13 ± 0.79,0.56 ± 0.04,2.05 ± 0.10,–,–,–,–,–,–
"mTyr-CNK (Candidatus Nitrosopumilus koreensis AR1) (protein, mature form, residues 1-303, C-terminal extension 304-415 removed; His6 tag (pET23b+), codon-optimized gene, E. coli BL21(DE3), Ni-NTA purified) MTRKNAKDFLPDERQRYCNALLTLKQTIEPGHTLSKYDEFVAIHYGVTRRLRNGIPIGDGAHFVPGFLAWHREYLNRFEKAIRTVDSTLSLPYWNWSSGDDTDTTEIFTDDFMGPPGDPNNGNKITSGYFVENNWEVHSELDGGNNGSVLVRDSTLLSSSKLSQVSGYGELAMDAVNGDNDFDSFLPGLEGPHGSIHMWIGGHMTSMTSPNDPIFFLHHANIDRLWSKWQELHPGPENYNPNNDGSYGSRLNDRMWPWDGSEDTTTTRTGTATGISLQGLLPTFSDYDIVTPRHVLDNNLTIP",–,–,–,–,2.12 ± 0.14,3.33 ± 0.18,1570 ± 10,0.49 ± 0.04,0.87 ± 0.07,1810 ± 260
